{"source": "patent US20180127503A1", "about": "(EUREKA THERAPEUTICS, published 2018)", "binders": {"B1": {"name": "ROR2-90 full length human IgG1 antibody (antibody, V domains shown)", "VH": "EVQLVESGPGLVKPSQTLSLTCTVSGGSISSGGYYWSWIRQHPGKGLEWIGYIYYSGSTYYNPSLKSRVTISVDTSKNQFSLKLSSVTAADTAMYYCARGGLYWTYSQDVWGQGTLVTVSS", "VL": "QPVLTQPPSASGTPGQRVTISCSGSSSNIGSDYVSWYQQLPGTAPKLLIYRNDQRPSGVPDRFSGSKSGTSASLAISGLRSEDEADYYCVAWDDSLSGYVFGSGTKVTVLG", "notes": "also called clone #90; antibody #90"}}, "key": {"[1]": {"molecular_target": "T1, human ROR2 expressed on the cell surface (human, UniProt Q01974 34-943)", "T1 construct": "Endogenous ROR2 of human tumour cell lines; also called cell surface ROR2; ROR2 on tumour cell lines", "T1 sequence (Q01974 34-943 limits assumed)": "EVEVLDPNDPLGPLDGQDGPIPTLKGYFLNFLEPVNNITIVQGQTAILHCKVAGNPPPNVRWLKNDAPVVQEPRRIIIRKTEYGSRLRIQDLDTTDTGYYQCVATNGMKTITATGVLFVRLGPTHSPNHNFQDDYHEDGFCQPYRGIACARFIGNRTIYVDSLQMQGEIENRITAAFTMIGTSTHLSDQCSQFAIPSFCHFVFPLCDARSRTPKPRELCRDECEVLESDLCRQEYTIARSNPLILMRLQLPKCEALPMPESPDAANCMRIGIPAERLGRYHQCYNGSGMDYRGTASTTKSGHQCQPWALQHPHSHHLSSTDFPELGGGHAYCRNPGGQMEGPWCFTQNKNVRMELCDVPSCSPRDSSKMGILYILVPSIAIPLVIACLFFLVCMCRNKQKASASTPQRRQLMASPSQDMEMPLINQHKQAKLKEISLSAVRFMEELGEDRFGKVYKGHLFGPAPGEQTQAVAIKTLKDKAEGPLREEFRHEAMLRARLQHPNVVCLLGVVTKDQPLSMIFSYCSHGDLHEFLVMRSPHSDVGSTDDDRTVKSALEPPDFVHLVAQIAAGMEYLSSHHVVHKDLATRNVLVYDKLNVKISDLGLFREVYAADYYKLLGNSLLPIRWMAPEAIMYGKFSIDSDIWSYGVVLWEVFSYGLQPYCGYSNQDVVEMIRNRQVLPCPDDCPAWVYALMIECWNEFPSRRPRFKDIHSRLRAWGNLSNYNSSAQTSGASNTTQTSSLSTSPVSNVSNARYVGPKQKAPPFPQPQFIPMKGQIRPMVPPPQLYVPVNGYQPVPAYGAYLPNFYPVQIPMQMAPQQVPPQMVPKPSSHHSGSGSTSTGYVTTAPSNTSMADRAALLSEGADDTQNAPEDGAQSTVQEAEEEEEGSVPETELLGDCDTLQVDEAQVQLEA", "assay": "flow cytometry, TC32 cells (EW/PNET)", "design": "unit not given here", "procedure": "(§1) Human tumour cell lines were authenticated using short tandem repeat (STR) analysis. They were cultured in RPMI1640 (Cellgro) supplemented with 10% fetal bovine serum (FBS, Life Technologies) at 37° C. in a 5% CO₂ humidified incubator. They were harvested, washed in PBS and reacted with ROR2-IgG at 1 ug/10⁶ tumour cells on ice for an hour. #901-IgG was used as a negative control at the same dose. After washing, a secondary PE-conjugated goat anti-human IgG, Fcγ fragment specific (1:100, Jackson ImmunoResearch) was added for another 30 min incubation. Staining was analyzed on a FACSCalibur (BD Biosciences). ROR2 (full length) antibody binding towards multiple cancer cell lines were compared with Rituxan and Herceptin antibodies. The cancer cell lines were derived from breast cancer, colorectal cancer, mesothelioma, hepatocellular carcinoma, ovarian cancer, osteosarcoma, neuroblastoma, etc. ROR2 #90 antibody could recognize most of the tumour cells tested, and in some cases, the binding intensity was higher than Herceptin (see Tables 8 to 10)."}, "[2]": {"molecular_target": "T1, human ROR2 expressed on the cell surface", "assay": "flow cytometry, SKES-1 cells (EW/PNET)", "design": "unit not given here", "procedure": "as §1"}, "[3]": {"molecular_target": "T1, human ROR2 expressed on the cell surface", "assay": "flow cytometry, TC71 cells (EW/PNET)", "design": "unit not given here", "procedure": "as §1"}, "[4]": {"molecular_target": "T1, human ROR2 expressed on the cell surface", "assay": "flow cytometry, IMR32 cells (neuroblastoma)", "design": "unit not given here", "procedure": "as §1"}, "[5]": {"molecular_target": "T1, human ROR2 expressed on the cell surface", "assay": "flow cytometry, CRL1427 cells (osteosarcoma)", "design": "unit not given here", "procedure": "as §1"}, "[6]": {"molecular_target": "T1, human ROR2 expressed on the cell surface", "assay": "flow cytometry, HEP G2 cells (HCC)", "design": "unit not given here", "procedure": "as §1"}, "[7]": {"molecular_target": "T1, human ROR2 expressed on the cell surface", "assay": "flow cytometry, U251 LUC cells (glioma)", "design": "unit not given here", "procedure": "as §1"}, "[8]": {"molecular_target": "T1, human ROR2 expressed on the cell surface", "assay": "flow cytometry, MCF7 cells (breast CA)", "design": "unit not given here", "procedure": "as §1"}, "[9]": {"molecular_target": "T1, human ROR2 expressed on the cell surface", "assay": "flow cytometry, H524 cells (SCLC)", "design": "reference not given here", "procedure": "as §1"}, "[10]": {"molecular_target": "T1, human ROR2 expressed on the cell surface", "assay": "flow cytometry, BE(1)N cells (neuroblastoma)", "design": "unit not given here", "procedure": "as §1"}, "[11]": {"molecular_target": "T1, human ROR2 expressed on the cell surface", "assay": "flow cytometry, SKMEL-5 cells (melanoma)", "design": "unit not given here", "procedure": "as §1"}, "[12]": {"molecular_target": "T1, human ROR2 expressed on the cell surface", "assay": "flow cytometry, JN DSRCT cells (DSRCT)", "design": "unit not given here", "procedure": "as §1"}, "[13]": {"molecular_target": "T1, human ROR2 expressed on the cell surface", "assay": "flow cytometry, MCF7-Luc cells (breast CA)", "design": "unit not given here", "procedure": "as §1"}, "[14]": {"molecular_target": "T1, human ROR2 expressed on the cell surface", "assay": "flow cytometry, NB5 cells (neuroblastoma)", "design": "unit not given here", "procedure": "as §1"}, "[15]": {"molecular_target": "T1, human ROR2 expressed on the cell surface", "assay": "flow cytometry, HTB132 cells (breast CA)", "design": "unit not given here", "procedure": "as §1"}, "[16]": {"molecular_target": "T1, human ROR2 expressed on the cell surface", "assay": "flow cytometry, SKNJB cells (neuroblastoma)", "design": "unit not given here", "procedure": "as §1"}, "[17]": {"molecular_target": "T1, human ROR2 expressed on the cell surface", "assay": "flow cytometry, U2OS cells (osteosarcoma)", "design": "unit not given here", "procedure": "as §1"}, "[18]": {"molecular_target": "T2, human ROR2 extracellular domain (ROR2 ECD recombinant protein) (human, UniProt Q01974 34-403)", "T2 construct": "also called human ROR2-ECD; hROR2-ECD", "T2 sequence (Q01974 34-403)": "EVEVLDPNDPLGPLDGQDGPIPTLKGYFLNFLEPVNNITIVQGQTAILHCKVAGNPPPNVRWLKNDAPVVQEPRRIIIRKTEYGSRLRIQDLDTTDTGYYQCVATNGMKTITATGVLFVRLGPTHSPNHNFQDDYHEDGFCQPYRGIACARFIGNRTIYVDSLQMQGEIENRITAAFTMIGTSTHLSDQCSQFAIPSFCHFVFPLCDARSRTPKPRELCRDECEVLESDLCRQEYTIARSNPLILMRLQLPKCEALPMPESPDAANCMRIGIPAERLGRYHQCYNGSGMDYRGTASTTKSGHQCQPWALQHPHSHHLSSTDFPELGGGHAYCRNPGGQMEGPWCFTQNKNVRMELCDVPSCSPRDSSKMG", "assay": "kinetic binding analysis, full length IgG1 on human ROR2-ECD"}, "[19]": {"molecular_target": "T1, human ROR2 expressed on the cell surface", "assay": "flow cytometry, SKNMM cells (neuroblastoma)", "design": "unit not given here", "procedure": "as §1"}, "[20]": {"molecular_target": "T1, human ROR2 expressed on the cell surface", "assay": "flow cytometry, RG187 cells (osteosarcoma)", "design": "unit not given here", "procedure": "as §1"}, "[21]": {"molecular_target": "T1, human ROR2 expressed on the cell surface", "assay": "flow cytometry, NMB7 cells (neuroblastoma)", "design": "unit not given here", "procedure": "as §1"}, "[22]": {"molecular_target": "T1, human ROR2 expressed on the cell surface", "assay": "flow cytometry, BE(2)S cells (neuroblastoma)", "design": "unit not given here", "procedure": "as §1"}, "[23]": {"molecular_target": "T1, human ROR2 expressed on the cell surface", "assay": "flow cytometry, OUMS 27 cells (chondrosarcoma)", "design": "unit not given here", "procedure": "as §1"}, "[24]": {"molecular_target": "T1, human ROR2 expressed on the cell surface", "assay": "flow cytometry, H69 cells (SCLC)", "design": "unit not given here", "procedure": "as §1"}, "[25]": {"molecular_target": "T1, human ROR2 expressed on the cell surface", "assay": "flow cytometry, H345 cells (SCLC)", "design": "unit not given here", "procedure": "as §1"}, "[26]": {"molecular_target": "T1, human ROR2 expressed on the cell surface", "assay": "flow cytometry, AU565 cells (breast CA)", "design": "unit not given here", "procedure": "as §1"}, "[27]": {"molecular_target": "T1, human ROR2 expressed on the cell surface", "assay": "flow cytometry, SKNSH cells (neuroblastoma)", "design": "unit not given here", "procedure": "as §1"}, "[28]": {"molecular_target": "T1, human ROR2 expressed on the cell surface", "assay": "flow cytometry, M14 cells (melanoma)", "design": "reference not given here", "procedure": "as §1"}}, "data": [{"binder": "B1", "values": [{"measurement": "binding intensity", "setting": "[1]", "value": 70}, {"measurement": "binding intensity", "setting": "[2]", "value": 28}, {"measurement": "binding intensity", "setting": "[3]", "value": 68}, {"measurement": "binding intensity", "setting": "[4]", "value": 51}, {"measurement": "binding intensity", "setting": "[5]", "value": 45}, {"measurement": "binding intensity", "setting": "[6]", "value": 49}, {"measurement": "binding intensity", "setting": "[7]", "value": 27}, {"measurement": "binding intensity", "setting": "[8]", "value": 115}, {"measurement": "binding intensity", "setting": "[9]", "value": 20}, {"measurement": "binding intensity", "setting": "[10]", "value": 302}, {"measurement": "binding intensity", "setting": "[11]", "value": 8}, {"measurement": "binding intensity", "setting": "[12]", "value": 84}, {"measurement": "binding intensity", "setting": "[13]", "value": 190}, {"measurement": "binding intensity", "setting": "[14]", "value": 47}, {"measurement": "binding intensity", "setting": "[15]", "value": 5}, {"measurement": "binding intensity", "setting": "[16]", "value": 254}, {"measurement": "binding intensity", "setting": "[17]", "value": 94}, {"measurement": "Kd", "setting": "[18]", "value": 163, "unit": "pM"}, {"measurement": "koff", "setting": "[18]", "value": 0.000167, "unit": "s⁻¹"}, {"measurement": "kon", "setting": "[18]", "value": "1.02e+06", "unit": "M⁻¹ s⁻¹"}, {"measurement": "binding intensity", "setting": "[19]", "value": 117}, {"measurement": "binding intensity", "setting": "[20]", "value": 79}, {"measurement": "binding intensity", "setting": "[21]", "value": 47}, {"measurement": "binding intensity", "setting": "[22]", "value": 40}, {"measurement": "binding intensity", "setting": "[23]", "value": 78}, {"measurement": "binding intensity", "setting": "[24]", "value": 15}, {"measurement": "binding intensity", "setting": "[25]", "value": 48}, {"measurement": "binding intensity", "setting": "[26]", "value": 211}, {"measurement": "binding intensity", "setting": "[27]", "value": 105}, {"measurement": "binding intensity", "setting": "[28]", "value": 17}]}]}
